B1: FcRn-16 (designed binder)
chain: MIPRGLSEAKPATPEIQEIVDKVKPQLEEKTNETYGKLEAVQYKTQVLAKHHHHKHQHSTNYYIKVRAGDNKYMHLKVFNGPVFLHNESHQADRVLTGYQVDKNKDDELTGFHHHHHH
notes: AFFIMER (stefin A variant)
B2: FcRn-18 (designed binder)
chain: MIPRGLSEAKPATPEIQEIVDKVKPQLEEKTNETYGKLEAVQYKTQVLAETPHERHKTSTNYYIKVRAGDNKYMHLKVFNGPKRWLKHHAHADRVLTGYQVDKNKDDELTGFHHHHHH
notes: AFFIMER (stefin A variant)
B3: FcRn-176 (designed binder)
chain: MIPRGLSEAKPATPEIQEIVDKVKPQLEEKTNETYGKLEAVQYKTQVLAGRHHESHKSSTNYYIKVRAGDNKYMHLKVFNGPFQHKLHKHHADRVLTGYQVDKNKDDELTGFHHHHHH
notes: AFFIMER (stefin A variant)
B4: FcRn-109 (designed binder)
chain: MIPRGLSEAKPATPEIQEIVDKVKPQLEEKTNETYGKLEAVQYKTQVLARPHNRDSHRSTNYYIKVRAGDNKYMHLKVFNGPDRKHRKHWHADRVLTGYQVDKNKDDELTGFHHHHHH
notes: AFFIMER (stefin A variant)
B5: FcRn-48 (designed binder)
chain: MIPRGLSEAKPATPEIQEIVDKVKPQLEEKTNETYGKLEAVQYKTQVLAKPKYHHHDISTNYYIKVRAGDNKYMHLKVFNGPGHHAKPHRWADRVLTGYQVDKNKDDELTGFHHHHHH
notes: AFFIMER (stefin A variant)
B6: FcRn-12 (designed binder)
chain: MIPRGLSEAKPATPEIQEIVDKVKPQLEEKTNETYGKLEAVQYKTQVLAKVKTHDHQRSTNYYIKVRAGDNKYMHLKVFNGPIHQHHSQDWADRVLTGYQVDKNKDDELTGFHHHHHH
notes: AFFIMER (stefin A variant)
B7: FcRn-88 (designed binder)
chain: MIPRGLSEAKPATPEIQEIVDKVKPQLEEKTNETYGKLEAVQYKTQVLAHHTKHHSRWSTNYYIKVRAGDNKYMHLKVFNGPVNHISHAPIADRVLTGYQVDKNKDDELTGFHHHHHH
notes: AFFIMER (stefin A variant)
B8: FcRn-120 (designed binder)
chain: MIPRGLSEAKPATPEIQEIVDKVKPQLEEKTNETYGKLEAVQYKTQVLAKHKYHHTGHSTNYYIKVRAGDNKYMHLKVFNGPGQIHKVRSTADRVLTGYQVDKNKDDELTGFHHHHHH
notes: AFFIMER (stefin A variant)
B9: FcRn-125 (designed binder)
chain: MIPRGLSEAKPATPEIQEIVDKVKPQLEEKTNETYGKLEAVQYKTQVLADHRPRHPKHSTNYYIKVRAGDNKYMHLKVFNGPAHKHHLGFKADRVLTGYQVDKNKDDELTGFHHHHHH
notes: AFFIMER (stefin A variant)
B10: FcRn-15 (designed binder)
chain: MIPRGLSEAKPATPEIQEIVDKVKPQLEEKTNETYGKLEAVQYKTQVLAHNHRHYSKGSTNYYIKVRAGDNKYMHLKVFNGPAFNDGAVFIADRVLTGYQVDKNKDDELTGFHHHHHH
notes: also called LGC01-15

Target: T1, Hu FcRn (BPS Bioscience) (human, UniProt P55899 24-297; P61769 21-119)
T1 construct: Bought recombinant protein coated on ELISA plates; also called human FcRn; human neonatal Fc receptor
Test: optimized ELISA on FcRn, pH 6

T1 sequence (P55899 24-297 limits assumed, chain 1 of 2): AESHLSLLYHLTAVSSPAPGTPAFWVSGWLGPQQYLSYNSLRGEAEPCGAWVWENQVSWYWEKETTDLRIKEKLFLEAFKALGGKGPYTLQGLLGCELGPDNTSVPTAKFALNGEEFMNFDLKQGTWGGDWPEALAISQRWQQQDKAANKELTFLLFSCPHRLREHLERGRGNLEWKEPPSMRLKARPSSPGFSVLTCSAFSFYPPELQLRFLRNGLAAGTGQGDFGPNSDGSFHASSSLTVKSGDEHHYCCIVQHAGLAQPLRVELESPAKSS
T1 sequence (P61769 21-119 limits assumed, chain 2 of 2): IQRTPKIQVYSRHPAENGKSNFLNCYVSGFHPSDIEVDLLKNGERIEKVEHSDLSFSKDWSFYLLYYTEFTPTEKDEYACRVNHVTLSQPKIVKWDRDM

| Binder | EC50 |
| --- | --- |
| B1 | 1020 nM |
| B2 | 327 nM |
| B3 | 4480 nM |
| B4 | 570 nM |
| B5 | 1500 nM |
| B6 | 262 nM |
| B7 | 967 nM |

Target: T2, hFcRn with a His-tag (human, UniProt P55899 24-297; P61769 21-119)
T2 construct: It may be the same product as m1; also called huFcRn (His tagged molecule, BPS); not shown: His-tag
Test: BLI (Octet); ratio of KD at pH 7.4 to KD at pH 6.0
Protocol: (§1) A BLI (Bio-Layer Interferometry)-based binding assay was performed for AFFIMER® screening in which the affinity to FcRn varies depending on the pH. hFcRn with a His-tag was fixed to a Ni-NTA biosensor. Thereafter, in the hFcRn and the AFFIMER® candidate group, Ni²⁺ not bound to the hFcRn was blocked using His-SQT-gly with a high concentration, in which reactivity is absent. Then, the AFFIMER® candidate group diluted to the same concentration was reacted with the hFcRn. All affimers were analyzed at pH 6.0 and pH 7.4, and KD was determined with a 1:1 binding model.

T2 sequence (P55899 24-297 limits assumed, chain 1 of 2): as the sequence (P55899 24-297 limits assumed, chain 1 of 2) above
T2 sequence (P61769 21-119 limits assumed, chain 2 of 2): as the sequence (P61769 21-119 limits assumed, chain 2 of 2) above

| Binder | pH 7.4/pH 6.0 (KD ratio) |
| --- | --- |
| B3 | 5.5 |
| B4 | 6.6 |
| B5 | 6.8 |
| B6 | 4.3 |
| B7 | 4.4 |

Target: T2, hFcRn with a His-tag
Test: BLI (Octet), His-hFcRn on Ni-NTA biosensor, Affimer 40 nM, pH 7.4
Protocol: as §1

| Binder | Response |
| --- | --- |
| B1 | 0.631 |
| B2 | 0.794 |
| B3 | 0.595 |
| B4 | 0.602 |
| B5 | 0.803 |
| B6 | 0.582 |
| B7 | 0.71 |

Target: T1, Hu FcRn (BPS Bioscience)
Test: ELISA, huFcRn coated, purified Affimer, pH 6
Protocol: The binding of AFFIMER® to hu-FcRn was evaluated by enzyme linked immunosorbent assay (ELISA) in 384 well plate format. Hu FcRn (BPS Bioscience) was coated at 5 μg/ml on the plate in 40 mM MES, pH 6. Plates were washed 3 times with 100 ul of washing buffer (PBS, Tween 20 0.05%, pH 6) with a plate washer and saturated with Casein 5% (Sigma) in MES pH 6 for 60 minutes at room temperature (25±1° C.). Plates were washed as described previously. AFFIMER® and negative controls (mAb anti hFcRn (clone ADM31), negative controls) were then diluted in duplicate, and loaded on the plate for 90 minutes at room temperature (25±1° C.). Plates were washed 3 times as described previously. Biotinylated polyclonal antibody anti Cystatin (R&D Systems) was then diluted in dilution buffer (1% casein, 0.05% Tween 20, and 8 mM MES, pH 6) and incubated 60 minutes at room temperature (25±1° C.). Plates were washed 3 times as described previously and Streptavidin HRP (N200, Thermo-Fisher) was incubated for 30 minutes at room temperature (25±1° C.). Plates were washed and the substrate (TMB, Pierce Thermo-Scientific) was added in the plate for 8±1 minute. The reaction was stopped using an acidic solution and plates were read at 450-630 nm. The EC₅₀ was then calculated using the interpolated non-linear four-parameters standard curve (FIGS. 5A-5B and Table 5A).

| Binder | EC50 |
| --- | --- |
| B8 | 50.5 nM |
| B9 | 187 nM |

Target: T1, Hu FcRn (BPS Bioscience)
Test: optimized ELISA on FcRn, pH 7.4

| Binder | EC50 |
| --- | --- |
| B1 | 48600 nM |
| B2 | 19700 nM |
| B3 | 78900 nM |
| B4 | 15700 nM |
| B5 | 79900 nM |
| B6 | 15700 nM |
| B7 | 23300 nM |

Target: T2, hFcRn with a His-tag
Test: BLI (Octet), His-hFcRn on Ni-NTA biosensor, Affimer 40 nM, pH 7.4, 1:1 model
Protocol: as §1

| Binder | Kd |
| --- | --- |
| B1 | 83.3 nM |
| B2 | 65 nM |
| B3 | 57.9 nM |
| B4 | 61.2 nM |
| B5 | 59.3 nM |
| B6 | 123 nM |
| B7 | 82.8 nM |

Target: T1, Hu FcRn (BPS Bioscience)
Test: ELISA, huFcRn coated, pH 6
Protocol: The binding of AFFIMER® to Hu-FcRn was evaluated by enzyme linked immunosorbent assay (ELISA) in 384 well plate format. Hu FcRn (BPS Bioscience) was coated at 5 μg/ml on the plate in 40 mM MES, pH 6. Plates were washed 3 times with 100 μl of washing buffer (PBS, Tween 20 0.05%, pH 6) with a plate washer and saturated with Casein 5% (Sigma) in MES pH6 for 60 minutes at room temperature (25±1° C.). Plates were washed as described previously. AFFIMER® and negative controls (mAb anti hFcRn (clone ADM31), negative controls) were then diluted in duplicate, and loaded on the plate for 90 minutes at room temperature (25±1° C.). Plates were washed 3 times as described previously. Biotinylated polyclonal antibody anti Cystatin (R&D Systems) was then diluted in dilution Buffer (1% casein, 0.05% Tween 20, and 8 mM MES. It is in pH6) and incubated 60 minutes at room temperature (25±1° C.). Plates were washed 3 times as described previously and Streptavidin HRP (N200, thermo-Fisher) was incubated for 30 minutes at room temperature (25±1° C.). Plates were washed and the substrate (TMB, Pierce Thermo-Scientific) was added in the plate for 8±1 minute. The reaction was stopped using an acidic solution and plates were read at 450-630 nm. The EC50 was then calculated using the interpolated non-linear four-parameters standard curve (Table 4).

| Binder | EC50 |
| --- | --- |
| B10 | 74.1 nM |

Target: T2, hFcRn with a His-tag
Test: BLI (Octet), His-hFcRn on Ni-NTA biosensor, Affimer 40 nM, pH 6.0
Protocol: as §1

| Binder | Response |
| --- | --- |
| B1 | 1.07 |
| B2 | 1.2 |
| B3 | 1.02 |
| B4 | 1.16 |
| B5 | 1.44 |
| B6 | 0.836 |
| B7 | 1.12 |

Target: T2, hFcRn with a His-tag
Test: BLI (Octet), His-hFcRn on Ni-NTA biosensor, Affimer 40 nM, pH 6.0, 1:1 model
Protocol: as §1

| Binder | Kd |
| --- | --- |
| B1 | 20.5 nM |
| B2 | 16 nM |
| B3 | 10.5 nM |
| B4 | 9.27 nM |
| B5 | 8.76 nM |
| B6 | 28.4 nM |
| B7 | 18.7 nM |
